We go through eight substances from patent US20190300610A1.

The Kd is the concentration at which binding is half-saturated.

Common to all, as to assay: reported; reported KD
Experiment [1] has as its target mFcgRIV.
The target in experiment [2] is mFcgRIII.
Experiment [3] addresses mFcgRIIb.
The target in experiment [4] is mFcRn.

With hIgG3, the Kd in experiment [1] came to 170 nM; in experiment [2] it was 1300 nM; in experiment [3] it was 700 nM; in experiment [4], 230 nM.
As for hIgG2, the Kd amounted to 9700 nM in experiment [2], 7900 nM in experiment [3] and 63 nM in experiment [4].
Regarding hIgG4, the Kd in experiment [1] was determined as 26000 nM; in experiment [2] it was 21000 nM; in experiment [3] it was 11000 nM; in experiment [4], 116 nM.
The matching figures for mIgG2b: 59 nM, 1560 nM, 448 nM and 545 nM.
Take hIgG1: the Kd in experiment [1] came to 280 nM; in experiment [2], 9300 nM; in experiment [3], 1100 nM; in experiment [4], 72 nM.
In the case of mIgG1, the Kd in experiment [2] stood at 3200 nM; in experiment [3], 301 nM; in experiment [4], 1160 nM.
mIgG2a: the Kd came out at 34.5 nM in experiment [1], 1460 nM in experiment [2], 2390 nM in experiment [3] and 490 nM in experiment [4].
In experiment [4], mIgG3 showed a Kd of 140 nM.
